Laboratory results reported in the nanobody polyreactivity screen of Harvey et al. (2022).

test: yeast display, Sf9 membrane polyspecificity reagent, FACS + sequencing; frameworks hold sequencing errors
Method in brief: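 Polyreactivity labels are assigned by the sorting gate from which each nanobody was recovered. The gates were low and high (top ~1%), set on anti-HA fluorescence for expression and streptavidin fluorescence for reagent binding. Before sorting, galactose-induced (36–48 hours) yeast display cells were stained for 1 hour at 4 °C with 10% biotinylated, detergent-solubilized Sf9 membrane reagent.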

| Sequence | polyreactivity (PSR sort gate) |
| --- | --- |
| QVQLVESGGGLVQAGGSLRLSCAASGRIFDGYTMGWYRQAPGKERELVAAITYRSGRTYYADSVKGRFTISRDNAKNTVYLQMNSLKPEDTAVYYCNKVKRSFIVNTDDYCGQGTQVTVSS | high polyreactivity |
| QVQLVESGGGLVQAGGSLRLSCAASGSIFVYNAMGWYRQAPGKERELVAAISSTGGSTYYADSVKGRFTISRDNAKNTVYLQMNSLKPEDTAVYYCARQGRYTRGDYWGQGTQVTVSS | high polyreactivity |
| QVQLVESGGGLVQAGGSLRLSCAASGRTFYSNAMGWYRESPGKERELVAAISRSGGTTYYADSVKGRFTISRDHAKNTVSLLMNSLKPEDTAVYYCNTLRYGTTGKYDYWGQGTQVTVSS | high polyreactivity |
| QVQLVESGGGLVQAGGSLRLSCAASGITFRKYAMGWYRPAPGKERELVAAISSGGSRTYYADSVKGRFTISRDNAKNTVYLQMNSLKPEDTAVYYCAARKADTVFKFEYWGQGTQVTVSS | high polyreactivity |
| QVQLVESGGVLVQAGGSLRLSCAASGRIFSAYAMGWYRPAPGKERDLVAAITSVGSTKYADYVKGRFTISRDNAKNTVYLQMNSLKPQDTAVYYCAAEYTRSFYIYYRFGYWGQGTQVTVSS | high polyreactivity |
| QVQLVESGGGLVQAGGSLRLSCAASGLIFKYNAMGWYRQAPGKERELVAAITWSGGITYADSVKGRFTISRDNAKNTVYLQMNSLKPEDTAVYYCAARGYWQPRPRRRYDYWGQGTQVTVSS | high polyreactivity |
| QVQLVESGGGLVQAGGSLRLSCAASGGIFLSNAMGWSRQAPGKERELVAAISRSGGSTYYADSVKGRFTISRDNAKNTVYLQMNSLKPEDTAVYYCAARWTRNYGMNYWGQGTKVTVSS | high polyreactivity |
| QVQLVESGGGLVQAGGSLRLSCAASGITFGPNAMGWYRQAPGKERELVAAISWRGGSTYYADSVKGRFTISRDNAKNTVYLQMNSLKPEDTAVYYCAKVQIPASYIRYDYWGQGTQVTVSS | low polyreactivity |
| QVQLVESGGGLVQAGGSLRLSCAASGSIFRPYAMGWYRQAPGKERELVAAIRGGGTYYADSVKGRFTISRDNAKNTVYLQMNSLKPEDTAVYYCAQYRYSYYYWGQGTQVTVSS | high polyreactivity |
| KVQLVESGGGLVQAGGSLRFSCAASGSTFYIYAMGWYRPAPGKERELVATISSTGSTHYADSVKGRFTLSRDNAKNTVYLQMISLKPEDTAVYYCNPVYFGRYSRRDHWGQGTQVTVSS | high polyreactivity |
| QVQLVESGGGLVQAGGSLRLSCAASGSILIYNAMGWYRQAPGKERELVAGISRRGASTYYADSVKGRFTISRDNAKNTVYLQMNSLKPEDTAVYYCAALGKYIVAWSGDYWGHGTQVTVSS | low polyreactivity |
| QVQLVESGGGLVQAGGSLRLSCAASGRTFTINAMGWYRQAPGKERELVATIRSSGGSTSYADSVKGRFTISRDNAKNTVYLQMNSLKPEDTAVYYCAADGWGRYDYWGQGTQVTVSS | low polyreactivity |
| QVQLVESGGGLVQAGGSLRLSCAASGRTFRRNAMAWYRKAPGKERELVAAISGGGSTNYADSVKGRFTISRDNAKNTVYLQMNSLKPEDTAVYYCNKRGTIWSGFWGQGTQVTVSS | high polyreactivity |
| QVQLVESGGGLVQAGGSLRLSCAASGFTFIRYAMGWYRQAPGKARELVAAIRGTGTSTYYADSVKGRFTISRDNAKNTVYLQMNSLKPEDTAVYYCNKVAGRSPYTRYDYWGQGTQVTVSS | low polyreactivity |
| QVQLVESGGGLVQAGGSLRLSCAASGIIFDDYAMGWYRQAPGKERELVAAITDSGGSTYYADSVKGRFTISRDNAKNTVYLQMNSLKPEDTAVYYCAARTQRRVNRVGYRSNYYYWGQGTQVTVSS | low polyreactivity |
| QVQLLESGGGLVQAGGSLRLSCAASGNTFSYYTMGWYRPAPGKERELVAAISASGGSTYYADSVKGRFTISRDNAKNTVYIQMNSLKQEDTAVYYCAASFYIERHRYNYWGHGTQVTVSS | high polyreactivity |
| QVQLHESGGGLVQARGSLRLSCAASGTSSNAGPMGWYRQAPGKEREFVAGIGVGSNTNYADSVKGRYTIIRDNAKNTVYLQMNSLKPEDTAVYYCAVGGYAPLGRPYWGQGTQVTVSS | low polyreactivity |
| QVQLVESGGGLVQAGGSLRLSCAASGSIFDLNAMGWYRQAPGKERELVAAISSGGGTYYADSVKGRFTISRDNAKNTVYFQMNSLKPEDTAVYYCNRVTRWTYNYWGQGTQVTVSS | high polyreactivity |
| QVQLVESGAGLVQAGGSLRLSCSAYGFIFGFYAMGWSRQAPGKERELVADITSSGGSTYYADSVKGRFTLSRDNAKNTVYLQMNSLKPEDTAVYYCAADGWWHNFYPGNGLDYWGQGTQVTVSS | low polyreactivity |
| QVQLQECGGGLVQAGGSLRLSCAASGHIFDADIMGWYRQAPGKERELVASVTDGGSTNYADSVKGRFTISRDNAKNTVYLQMNSLKPEATAVFYCAAIVYPDILTYFDYDYDYFYWGQGTQVTVGS | low polyreactivity |
| QVQLVESGGGLVQAGGSLRLSCAASGSTFAVNAMGWYRQAPGKERELVAAISGSGGRTYYADSVKGRFTISRDNAKNTVYLQMNSLKPEETAFYYCATELRAPYRSSGAYHYDYWGQGTQVTVSS | low polyreactivity |
| QLQLVESGGGLVQAGGSLRLSCAASGSIFHRYAMGWYRQAPGKEREFVAAISGRGGSTYYADSVKGRITISRDNAKNTVYLQMNSLKPEDTAVYYCAADSSLFYGRPRYYYWGQGTQVTVSS | high polyreactivity |

| Sequence | polyreactivity (PSR sort gate) |
| --- | --- |
| QVQLVESGGGLVQAGGSLRLSCASSGNTFIENAMGWYRQAPGKERELVAAIDTGGSTYYADSVKGRFTISRDNAKNTVYLQMNSLKPEDSAVYYCTAVGLYLYRYIFGYLGKIGPGYDYWGQGTQVSVSS | low polyreactivity |
| QVQLVESGGGLVQAGGSLRLSCAASGRIFGGNTMGWYRQAPGKEREFVAAITQSGTRTYYADSVKGRFTISRDNAKNTVYLQMNSLKPEDTAVYYCAATWRQHPGSMGYWGQGTQVTVSS | high polyreactivity |
| QVQLVESGGGLVQAGGSLRLSCAASGSTFVTNDMGWYRQAPGKESELVAAISSGTSTNYADSVKGRFTISRDNAKNTVYLQMNSLKPEDTAVYYCAADSLKRYDYWGQGTQVTVSS | low polyreactivity |
| QVQLVESGGGLVQAGRSLRLSCAASGIIFEWNGMGWYRQAPGKERELVAALPWSGGSTYYADSVKGRFTISRDNAKNTVYLQMNSLKPEDTAVYYCNAYWKDDFEDGPGRRGMDYWGQGSQVTVSS | low polyreactivity |
| QVQLVESGGGLVQAGGSLRLSCAASGSTFPTNAMGWYRQAPGKERELDAGITEGGSSTYYADSVKGRFTISRDYAKNTVYLQMNSLKPEDTAVYYCAADVLWYGPFWVRQDDYWGQGTQLTVSS | high polyreactivity |
| QVQLVESGGGLVQAGGSLRLSCAASGRIFPRYAMGWYRQAPGKERELVAAITSSGTSTYYADSVKGRFTISRDNAKNTVYLQMNSLKPEDTAVYYCNAVKYARWGYDYWGQGTQVTVSS | high polyreactivity |
| QVQLVESGGGLVQAGGSLRLSCAASGRTFARYAMGWYRQAPGKERELVAAISWSGGSTYYADSVKGRFTISRDNAKNTVYLQMNSLKPEDTAVYYCAAGYGARSAIFDVYGTNEGDYWGQGTQVTVSS | high polyreactivity |
| QVQLVESGGGLVQAGGSLRLSCAASGSTFVPNAMGWYRQAPGKERELVAAISSVGSTNYADSVKGRFTISRDNAKNTVYLQMNSLKPEDTAVYYCAVRYPWRYFKYGYWGQGSQVTVSS | low polyreactivity |
| QVQLVESGGGLVQAGGSLRLSCAASGFISFGNAMGWYIQAPGKERELVAGISRSGGSTYYADSVKGRFTISRDNAKNTVYLQMYSLKPEDTAVYYCATRVAIYPYRFDYWGQGTQVTVSS | high polyreactivity |
| QVQLVESGGGLVQAGGSLRLSCAASGITFDEYAMGWYRQAPGKERELVAAISWRGAITYYADSVKGRFTISRDNAKNTVYLQMNSLKPEDTAGYYCNADRAYTYVRYYITQDFGYWGQGTQVTVSS | high polyreactivity |
| QVQLVESGGGLDQARGSLRLSCAASGTTIGGNAMGWYRQAPGKERELVAAIDSGGSTYADSVKGRFTISRDNAKKTVYVQMNSLKPEDTAVYYCAAVWEFVHFWSFDYWGQGTQVTVSS | low polyreactivity |
| QDQLVESGGGIVQAGGSLRLSCAASGSTFPIYAMGWYRQAPGKERELVADITSTGSTDYADSVKGRFTISRDNAKNTVYLQMNSLKPEDTAVYYCAADYYYSAYFWSDFDYWGQGTQVTVSS | high polyreactivity |
| QVQLVESGGGLVQAGGSLRLSCAASGIIFRLNAMGWYRQAPGKERELGAAIRRRGGSTYYADSVKGRFTISRDNAKNTVYLQMNSLKPEDTAVYYCAADAPWAYYEYDYWGQGTQVTVSS | low polyreactivity |
| QVQLVESGGGLVQAGGSLRLSCAASGSTFSLYTMGWYRQAPGKERELVAAITNGGSTKYADSVKGRFTISRDNAKNTVYLQMNSLKPEDTAVYYCAALYTHYYWIEYDYWGQGTQVTVSS | low polyreactivity |
| QVQLVESGGGLVQAGGSLRLSCAASGSILFYNTMGWYRQAPGKERELVASITSGGSTKYADSVKGRFTISRDNAKNTVYLQMNSLKPEDTAVYYCNADRRFYSIYRWHHYYWGQGTQVTVSS | low polyreactivity |
| QVQLVESGGGLVQAGGSLRLSCAASGGTFRKNTMGWYRQAPGKERELVAAITRRADRTYYADSVKGRFTISRDNAKNTVYLQMNSLKPEDTAVYYCNAPPPPTKVGGYDYWGQGTQVTVSS | high polyreactivity |
| QVQLVESGGGLVQAGGSLRLSCAASGRIFHVNAMGWYRQAPGKERELVAAISTSGGRTYYADSVKGRFTISRDNAKNTVYLQLNSLKPEVTAVYYCAAVSRAPGLRYDYWGQGTQVTVSS | high polyreactivity |
| QVQLVESGGGLVQAGGSIRLSCAASGSIYKSNTMGRYRQAPGKEREFVAAISWGGGSTYYADSVKGRFTISRDNAKHTVYLQMNSLKPEDTAVYYCATRPGTRPAYDYWGQGTQVTVSS | high polyreactivity |
| QVQLVESGGGLVQAGGSLRLSCAASGIIFKYNVMGWYTQAPGKERELVAAITDSGTSTFYADSVKGRFTISRDNAKNTVSLQMNSLKPEDTAFYYCAADEFSVFTIETYGYDYWGQGTQVTVSS | low polyreactivity |
| QVQLVESGGGLVQAGGSLRLSCAASGRTFGYNAMGWYIQAPGKERELVAAINWSGASTYYADYVKGRFTISRDNAKNTVYLQMNSLKPEDTAVYYCAADYSYIYGFDYWGQGTQVTVSS | low polyreactivity |
| QVQLVESWGGLVQAGGSLRLSCAAYGIIFKYYAMGWYRQAPGKERELVAVITSNGARTYYADSVKGRFTISRDNAKNTVYLQMNSLKPEDTAVYYCNAYRLSVSVGYDYCGQGTQVTVSS | high polyreactivity |
